We go through 2 substances from paper PMC4161306, “Regulation of Arabidopsis Flowering by the Histone Mark Readers MRG1/2 via Interaction with CONSTANS to Modulate FT Expression” (PLoS Genetics, 2014).

The experiment addresses MRG2 chromodomain (residues 41-123) (Arabidopsis thaliana) (UniProt Q4V3E2). Kind of experiment: ITC; 25 C, MicroCal iTC200; 50 mM Tris pH 8.0, 100 mM NaCl; 0.2-0.4 mM protein in the cell, 2-4 mM peptide injected in 2 ul aliquots (20 injections); one-site model.

MRG2 chromodomain (residues 41-123) (Arabidopsis thaliana), sequence (Q4V3E2 41-123): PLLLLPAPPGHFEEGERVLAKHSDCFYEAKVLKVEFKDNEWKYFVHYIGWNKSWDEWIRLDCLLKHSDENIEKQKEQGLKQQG

In turn, H3K4me3 peptide (residues 1-9) gave a Kd of 800 µM. The value for H3K36me3 peptide (residues 31-41) was 690 µM.
